The source of these data is article PMC9482650, “Quantitative fragmentomics allow affinity mapping of interactomes” (Nature Communications, 2022).

Targets include Q96FS4; Q13009; O75970; Q92614; Q8TB45; Q70Z35; Q9NPB6; O60759; Q8TEW0; GIPC3, Q8TF64; Q8IUC4; Q8TDM6; O00233; O00560; Q9UMS6; Q9Y3R0; Q12923; Q9ULJ8.
Common to all, as to assay: holdup assay
What all share (parameters): key: below the threshold = too weak to quantify, mostly under pKd 3.1 to 4
Common to all, as to settings: plain residues with an end cap or a label only (N-terminal biotin on a linker: ttds)

The next assay has as its target T1, INTU, Q9ULD6.
T1 sequence (Q9ULD6 180-273, limits assumed, looked up): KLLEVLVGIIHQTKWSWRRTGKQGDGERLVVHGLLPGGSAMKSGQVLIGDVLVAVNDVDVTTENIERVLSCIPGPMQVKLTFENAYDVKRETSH

For another assay, the target named is T2, CNKSR1, Q969H4.
T2 sequence (Q969H4 191-295, limits assumed, looked up): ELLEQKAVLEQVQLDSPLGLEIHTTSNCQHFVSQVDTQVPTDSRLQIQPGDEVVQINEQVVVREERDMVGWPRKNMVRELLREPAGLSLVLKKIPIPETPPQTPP

The target in another assay is T3, RGS12, O14924.
T3 sequence (O14924 17-108, limits assumed, looked up): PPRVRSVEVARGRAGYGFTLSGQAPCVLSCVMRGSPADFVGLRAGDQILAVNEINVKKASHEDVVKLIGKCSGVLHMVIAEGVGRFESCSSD

Chain of GIPC3, Q8TF64 (Q8TF64 107-202): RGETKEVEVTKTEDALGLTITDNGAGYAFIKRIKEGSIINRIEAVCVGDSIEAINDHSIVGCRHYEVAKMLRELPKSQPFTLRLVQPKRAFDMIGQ

The pKd is the Kd on a negative log10 scale, so that one unit is a factor of ten. For RTRQRNETQV [HPV51-E6, P26554], the pKd result is recorded as “below the threshold” with Q96FS4; “below the threshold” with Q13009; “below the threshold” in the assay with O75970; “below the threshold” with INTU, Q9ULD6; “below the threshold” with Q92614; “below the threshold” in the assay with Q8TB45. In addition, the pKd entry with Q70Z35 is “below the threshold”; with Q9NPB6, “below the threshold”; in the assay with O60759, “below the threshold”; with CNKSR1, Q969H4, 4.44; with Q8TEW0 it was “below the threshold”; in the assay with GIPC3, Q8TF64, “below the threshold”. Besides, the negative logarithm of the Kd (pKd) result in the assay with Q8IUC4, in the assay with Q8TDM6, with O00233, with O00560, in the assay with Q9UMS6 and with Q9Y3R0 was “below the threshold” each time. Besides, the pKd entry with RGS12, O14924 is on record as “below the threshold”; with Q12923, “below the threshold”; in the assay with Q9ULJ8, “below the threshold”.

On to DPLTPSRSQL [DGKK, Q5KSL6], for which the negative logarithm of the Kd (pKd) entry with Q96FS4 is “below the threshold”; with Q13009 it was “below the threshold”; in the assay with O75970, “below the threshold”; in the assay with INTU, Q9ULD6, “below the threshold”; with Q92614, “below the threshold”; with Q8TB45, “below the threshold”. Besides, the pKd entry is “below the threshold” with Q70Z35; “below the threshold” in the assay with Q9NPB6; “below the threshold” with O60759; 4.3 with CNKSR1, Q969H4; “below the threshold” with Q8TEW0; “below the threshold” in the assay with GIPC3, Q8TF64. Also, the pKd entry with Q8IUC4, in the assay with Q8TDM6, with O00233, in the assay with O00560, with Q9UMS6 and with Q9Y3R0 was “below the threshold” throughout. In addition, the pKd entry with RGS12, O14924 is listed as “below the threshold”; in the assay with Q12923, “below the threshold”; with Q9ULJ8, “below the threshold”.

In the case of IQREDQETAV [DGKZ, Q13574], the pKd entry in the assay with Q96FS4, in the assay with Q13009, with O75970, with Q92614, with Q8TB45 and with Q70Z35 was “below the threshold” in each case. The pKd entry in the assay with Q9NPB6 is “below the threshold”; with O60759 it was “below the threshold”; with CNKSR1, Q969H4, “below the threshold”; in the assay with Q8TEW0, “below the threshold”; in the assay with GIPC3, Q8TF64 it was “below the threshold”; in the assay with Q8IUC4, “below the threshold”. Moreover, the pKd result is on record as “below the threshold” with Q8TDM6; “below the threshold” with O00233; “below the threshold” with O00560; “below the threshold” in the assay with Q9UMS6; “below the threshold” in the assay with Q9Y3R0; “below the threshold” with RGS12, O14924. Further, the pKd entry with Q12923 and with Q9ULJ8 was “below the threshold” each time.

As to NYWPGKETQL [SLCO1C1, Q9NYB5], the pKd result is on record as “below the threshold” in the assay with Q96FS4; “below the threshold” with Q13009; “below the threshold” with O75970; “below the threshold” with INTU, Q9ULD6; “below the threshold” in the assay with Q92614; “below the threshold” with Q8TB45. The negative logarithm of the Kd (pKd) entry in the assay with Q70Z35 is reported as “below the threshold”; with Q9NPB6 it was “below the threshold”; in the assay with O60759 it was “below the threshold”; with CNKSR1, Q969H4, “below the threshold”; with Q8TEW0 it was “below the threshold”; with GIPC3, Q8TF64, “below the threshold”. Further, the negative logarithm of the Kd (pKd) result with Q8IUC4, in the assay with Q8TDM6, with O00233, in the assay with O00560, with Q9UMS6 and with Q9Y3R0 was “below the threshold” each time. Moreover, the pKd entry in the assay with RGS12, O14924 is “below the threshold”; with Q12923, “below the threshold”; with Q9ULJ8, “below the threshold”.
